{
  "source": "paper PMC6077248",
  "target": "Venus-Gβ2γ7 (Venus 156-239-Gβ2 with Venus 1-155-Gγ7), P62879-1;O60262",
  "assay": "BRET (suppression of GRK3ct-Gβ2γ7 BRET by competing Gαolf)",
  "details": "chain shown with the change; HEK293T/17 cells; parent: est. 100; read off a plot",
  "data": [
    {"binder": "G protein α subunit Gαolf, wild type, P38405 P102_V104del (protein) MGCLGGNSKTTEDQGVDEKERREANKKIEKQLQKERLAYKATHRLLLLGAGESGKSTIVKQMRILHVNGFNPEEKKQKILDIRKNVKDAIVTIVSAMSTIIPLANPENQFRSDYIKSIAPITDFEYSQEFFDHVKKLWDDEGVKACFERSNEYQLIDCAQYFLERIDSVSLVDYTPTDQDLLRCRVLTSGIFETRFQVDKVNFHMFDVGGQRDERRKWIQCFNDVTAIIYVAACSSYNMVIREDNNTNRLRESLDLFESIWNNRWLRTISIILFLNKQDMLAEKVLAGKSKIEDYFPEYANYTVPEDATPDAGEDPKVTRAKFFIRDLFLRISTATGDGKHYCYPHFTCAVDTENIRRVFNDCRDIIQRMHLKQYELL", "values": [
      {"measurement": "percent of parent", "value": 29, "unit": "%"}
    ]}
  ]
}
